Patent JP2013532970A, “追加のジスルフィド結合を含有するヒトインスリン” (ノヴォ ノルディスク アー/エス, priority 2010, dated 2011)

Assay: Thioflavin T (ThT) fibrillation assay
Type: physicochemical
Conditions: 7 mM sodium phosphate pH 7.4, 1 μM ThT, 37℃, orbital shaking 960 rpm

| Substance | Fibrillation within the 45-hour experiment (ThT fluorescence) (45 h) | ThT fibrillation lag time |
| --- | --- | --- |
| A10C, B4C, desB30ヒトインスリン [実施例4] | 細線維化しなかった | – |
| ヒトインスリン: Human insulin hormone (prior art), 21-residue A chain and 30-residue B chain; used as the reference | – | < 2 時間 |
